Laboratory results reported in patent publication US20090155164A1.
Where two headings read alike, the source gives them in different places.

Columns and labels:
[1] = target: T1, recombinant human CSF-1 (human) (UniProt P09603); experiment: cell-based or functional assay
T1 sequence (looked up): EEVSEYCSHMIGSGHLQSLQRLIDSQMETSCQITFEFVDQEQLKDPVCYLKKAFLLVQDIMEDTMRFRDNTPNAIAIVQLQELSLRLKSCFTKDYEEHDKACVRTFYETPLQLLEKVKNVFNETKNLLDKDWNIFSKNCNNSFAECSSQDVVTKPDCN

[2] = target: T1, recombinant human CSF-1 (human); experiment: cell-based or functional assay; remark: listed apart in the source

Sequence of c-fms-Fc, human c-fms extracellular domain (residues 1-512) with a C-terminal human Fc domain (P07333 20-512): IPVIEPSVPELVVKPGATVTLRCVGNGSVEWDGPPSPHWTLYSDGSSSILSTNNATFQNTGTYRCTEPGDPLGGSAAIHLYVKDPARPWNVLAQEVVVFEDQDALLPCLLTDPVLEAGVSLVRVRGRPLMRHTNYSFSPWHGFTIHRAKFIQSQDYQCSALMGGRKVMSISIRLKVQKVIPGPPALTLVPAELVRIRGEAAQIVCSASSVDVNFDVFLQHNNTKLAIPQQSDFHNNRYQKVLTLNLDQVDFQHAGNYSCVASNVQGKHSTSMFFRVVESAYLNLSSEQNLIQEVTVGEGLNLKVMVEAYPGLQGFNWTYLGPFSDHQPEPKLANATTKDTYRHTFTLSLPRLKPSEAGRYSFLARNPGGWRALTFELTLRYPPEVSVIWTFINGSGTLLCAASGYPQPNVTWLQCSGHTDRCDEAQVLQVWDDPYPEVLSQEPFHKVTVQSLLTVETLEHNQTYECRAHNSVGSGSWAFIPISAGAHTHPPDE

AML-5 bioassay IC50 [1]: 0.21 nM
Cynomolgus bone marrow bioassay IC50 [1]: 0.617 nM
Human CD14+ monocytes bioassay IC50 [1]: 0.556 nM
AML-5 bioassay IC50 [2]: 0.034 µg/mL
Cynomolgus bone marrow bioassay IC50 [2]: 0.1 µg/mL
Human CD14+ monocytes bioassay IC50 [2]: 0.09 µg/mL
Substance: c-fms-Fc, human c-fms extracellular domain (residues 1-512) with a C-terminal human Fc domain (from UniProt P07333 20-512) (Fc fusion)
